B1: EWS low-complexity domain (N-terminal 264 residues of RNA-binding protein EWS) [not stated] / itself (parent)
chain: GAMASTDYSTYSQAAAQQGYSAYTAQPTQGYAQTTQAYGQQSYGTYGQPTDVSYTQAQTTATYGQTAYATSYGQPPTGYTTPTAPQAYSQPVQGYGTGAYDTTTATVTTTQASYAAQSAYGTQPAYPAYGQQPAATAPTRPQDGNKPTETSQPQSSTGGYNQPSLGYGQSNYSYPQVPGSYPMQPVTAPPSYPPTSYSSTQPTSYDQSSYSQQNTYGQPSSYGQQSSYGQQSSYGQQPPTSYPPQTGSYSQAPSQYSQQSSSYGQQ

Variants of B1 are the subject of the assay. The assay is described as follows: pelleting assay (phase separation). The settings on record: with itself; 50 µM protein, 150 mM NaCl, 20 mM Tris pH 7.4; read off a plot.
With chain 1 Y46S, the screen value was found to be 0.64.

For the variant chain 1 Y174S, the screen value was found to be 0.75. The same measure for chain 1 Y210S: 0.5; for chain 1 N171S: 0.6. For the variant chain 1 Y172S Y174S, the screen value was 0.81.

The record behind these values is publication doi:10.1101/2023.10.27.564484, “Insights into Molecular Diversity within the FET Family: Unraveling Phase Separation of the N-Terminal Low Complexity Domain from RNA-Binding Protein EWS” (bioRxiv, 2023).
